The experiment addresses acetylcholine receptor. Put plainly: SPR, AchR immobilised, peptide 10 uM.

In turn, RRPDIK [6mer-1-1078] displayed a Binding affinity (RU) of 25 RU.

On to RRKTDR [6mer-1-1099], for which the Binding affinity (RU) came to 24 RU.

The molecule KRDKAK [6mer-1-1065] showed a Binding affinity (RU) of 23 RU.

The molecule KKTCDR [6mer-1-1082] yielded a Binding affinity (RU) of 37 RU.

Consider KRYSMR [6mer-1-643], for which the Binding affinity (RU) worked out at 31 RU.

KRDHIK [6mer-1-664] displayed a Binding affinity (RU) of 26 RU.

Molecule RRKWGR [6mer-1-1077] yielded a Binding affinity (RU) of 24 RU.

In the case of RRCTVR [6mer-1-657], the Binding affinity (RU) was determined as 17 RU.

For RRTTIR [6mer-1-645], the Binding affinity (RU) came to 33 RU.

For the molecule KKTCDK [6mer-1-1070], the Binding affinity (RU) was found to be 24 RU.

KRTCGR [6mer-1-1074] registered a Binding affinity (RU) of 24 RU.

With RKEANK [6mer-1-1086], the Binding affinity (RU) worked out at 22 RU.

RKFTKK [6mer-1-1089] gave a Binding affinity (RU) of 31 RU.

RRPTHK [6mer-1-656] yielded a Binding affinity (RU) of 28 RU.

Regarding KKFWEK [6mer-1-648], the Binding affinity (RU) is 17 RU.

The molecule RKHPVK [6mer-1-1079] displayed a Binding affinity (RU) of 25 RU.

KRPSNK [6mer-1-1081] yielded a Binding affinity (RU) of 23 RU.

Consider KKFKDR [6mer-1-663], for which the Binding affinity (RU) came out at 26 RU.

RKYKDR [6mer-1-636] gave a Binding affinity (RU) of 27 RU.

In the case of KKHNMR [6mer-1-1080], the Binding affinity (RU) stood at 38 RU.

In the case of RKKDMR [6mer-1-1098], the Binding affinity (RU) is 42 RU.

The molecule KRPNVR [6mer-1-639] displayed a Binding affinity (RU) of 24 RU.

With KKMTER [6mer-1-662], the Binding affinity (RU) came out at 20 RU.

RKKEMK [6mer-1-658] showed a Binding affinity (RU) of 20 RU.

With RRNCWR [6mer-1-640], the Binding affinity (RU) amounted to 25 RU.

Consider KRMEPR [6mer-1-630], for which the Binding affinity (RU) is 14 RU.

With RKTKAK [6mer-1-1071], the Binding affinity (RU) was 38 RU.

Regarding RRETHK [6mer-1-1088], the Binding affinity (RU) stood at 38 RU.

RREMFK [6mer-1-641]: the Binding affinity (RU) stood at 21 RU.

Regarding RKYMWK [6mer-1-1073], the Binding affinity (RU) turned out to be 27 RU.

With KRMTHR [6mer-1-653], the Binding affinity (RU) is 15 RU.

Take KRYHIR [6mer-1-1068]: the Binding affinity (RU) is 31 RU.

As for KKCDGK [6mer-1-665], the Binding affinity (RU) came to 21 RU.

RKYHDK [6mer-1-1092] showed a Binding affinity (RU) of 43 RU.

For RKDTAR [6mer-1-632], the Binding affinity (RU) came to 17 RU.

RKEDVK [6mer-1-1066] showed a Binding affinity (RU) of 23 RU.

As for KKCCPK [6mer-1-1084], the Binding affinity (RU) is 25 RU.

As for KRICWK [6mer-1-651], the Binding affinity (RU) was determined as 27 RU.

Molecule RKPEPR [6mer-1-1096] returned a Binding affinity (RU) of 23 RU.

RKPKWR [6mer-1-661] came in with a Binding affinity (RU) of 14 RU.

The molecule RKYNVR [6mer-1-647] returned a Binding affinity (RU) of 14 RU.

As for RRKSDR [6mer-1-1093], the Binding affinity (RU) turned out to be 37 RU.

KKDDGK [6mer-1-1091] returned a Binding affinity (RU) of 32 RU.

RRCHVK [6mer-1-1095] displayed a Binding affinity (RU) of 27 RU.

In turn, RRKHWK [6mer-1-1067] returned a Binding affinity (RU) of 38 RU.

For the molecule RKKEPK [6mer-1-1076], the Binding affinity (RU) is 43 RU.

Take RRCTGK [6mer-1-646]: the Binding affinity (RU) came out at 33 RU.

Consider RKNMFR [6mer-1-655], for which the Binding affinity (RU) worked out at 12 RU.

On to RKIDAK [6mer-1-633], for which the Binding affinity (RU) worked out at 16 RU.

For the molecule KKTTWK [6mer-1-635], the Binding affinity (RU) was 33 RU.

RRFEFK [6mer-1-637] came in with a Binding affinity (RU) of 33 RU.

KKCTPR [6mer-1-1072] displayed a Binding affinity (RU) of 36 RU.

For the molecule KKIWAR [6mer-1-1069], the Binding affinity (RU) came to 23 RU.

Consider KKPWKR [6mer-1-1087], for which the Binding affinity (RU) was 27 RU.

With KKNTMR [6mer-1-634], the Binding affinity (RU) is 12 RU.

As for RRCNNR [6mer-1-650], the Binding affinity (RU) was 18 RU.

RRPEVK [6mer-1-652] came in with a Binding affinity (RU) of 26 RU.

KREAMK [6mer-1-1085] displayed a Binding affinity (RU) of 33 RU.

KKYNGK [6mer-1-642]: the Binding affinity (RU) was 24 RU.

RRYSDR [6mer-1-631]: the Binding affinity (RU) was found to be 13 RU.

In turn, RKNCNK [6mer-1-1097] had a Binding affinity (RU) of 39 RU.

As to KKYHVK [6mer-1-660], the Binding affinity (RU) stood at 31 RU.

Take RRIAGK [6mer-1-649]: the Binding affinity (RU) was 32 RU.

For KRMNDR [6mer-1-654], the Binding affinity (RU) was determined as 23 RU.

On to KKNAVR [6mer-1-1083], for which the Binding affinity (RU) is 36 RU.

The molecule KKESHR [6mer-1-638] gave a Binding affinity (RU) of 20 RU.

With RKTWFR [6mer-1-644], the Binding affinity (RU) turned out to be 31 RU.

KKPSKR [6mer-1-659] displayed a Binding affinity (RU) of 29 RU.

In turn, KKPSVK [6mer-1-1075] displayed a Binding affinity (RU) of 38 RU.

Regarding KKTMWR [6mer-1-1090], the Binding affinity (RU) was 27 RU.

RRMAIK [6mer-1-1094] registered a Binding affinity (RU) of 42 RU.

Source of the values: US20250011363A1, “OPTIMIZED SHORTENED PEPTIDE THAT BINDS TO ACETYLCHOLINE RECEPTOR, AND USE THEREOF” (SKINMED CO., LTD., priority 2021, published 2025).
